These results are taken from paper PMC5859912 (ACS Chemical Biology, 2018).

What is called Kd is the concentration at which binding is half-saturated. A high value points to weaker binding.

One assay concerns PCY1. Format: biochemical, Saponaria vaccaria. Conditions: LC/MS (ion count); 30 °C; pH 8.5.
For assay [1], the target named is PCY1:S562A (Saponaria vaccaria) (UniProt R4P353). The assay is described as follows: ITC. Background: In ITC the heat of successive injections is recorded.
The target in a further assay is T1, PCY1:S562A (Saponaria vaccaria, UniProt R4P353 1-724, S562A).
T1 sequence: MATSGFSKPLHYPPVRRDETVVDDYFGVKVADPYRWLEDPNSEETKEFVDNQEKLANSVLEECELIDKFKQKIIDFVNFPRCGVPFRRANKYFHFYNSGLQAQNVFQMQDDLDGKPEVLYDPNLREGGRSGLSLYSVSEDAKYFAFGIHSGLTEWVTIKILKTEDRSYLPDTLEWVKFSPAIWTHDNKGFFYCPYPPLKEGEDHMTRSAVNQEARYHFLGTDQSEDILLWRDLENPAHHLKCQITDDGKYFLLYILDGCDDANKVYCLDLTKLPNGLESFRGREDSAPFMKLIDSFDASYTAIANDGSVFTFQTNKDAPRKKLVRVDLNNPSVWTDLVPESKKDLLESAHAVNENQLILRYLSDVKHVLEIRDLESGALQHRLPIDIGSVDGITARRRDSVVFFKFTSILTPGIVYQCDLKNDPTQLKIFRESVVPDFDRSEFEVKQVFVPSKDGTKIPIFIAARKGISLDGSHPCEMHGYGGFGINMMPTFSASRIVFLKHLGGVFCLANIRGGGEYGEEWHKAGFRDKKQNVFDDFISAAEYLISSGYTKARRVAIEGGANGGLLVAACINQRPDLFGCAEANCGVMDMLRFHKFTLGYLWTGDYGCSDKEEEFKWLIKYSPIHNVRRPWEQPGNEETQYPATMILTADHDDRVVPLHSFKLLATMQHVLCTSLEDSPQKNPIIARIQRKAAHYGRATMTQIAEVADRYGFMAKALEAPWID
Briefly: ITC.

As to FSASYSSKP FQA, the kcat/Km in the assay with PCY1 is reported as 1200 s^–1 M^–1.

Molecule presegetalin A1 (peptide) returned a Kd in assay [1] of 173 nM.

As to presegetalin B1 (peptide), the Kd in assay [1] is 238 nM.

In assay [1], presegetalin D1 (peptide) displayed a Kd of 250 nM.

Consider presegetalin F1 (peptide), for which the Kd in assay [1] turned out to be 136 nM.

The molecule DNASAPV gave a Kd with PCY1:S562A of 9580 ± 580 nM.
